This experiment addresses streptavidin (Streptomyces avidinii, UniProt P22629). Kind of experiment: Degree of biotinylation assessed by HPLC as fraction bound to streptavidin. It is filed as binding. The following applies: fusion protein biotinylation peptide-His(10)-phi29 pol, biotinylated in vivo in E. coli co-expressing biotin ligase, Ni-NTA purified, 2-fold molar excess of streptavidin. The method, then: Each of the DNA sequences encoding the affinity peptides was added individually to the 5′ terminus of a His(10)-tagged phi29 DNA polymerase gene such that the polypeptide expressed from each construct was a fusion protein consisting of: N-terminus-biotinylation peptide-His(10)-phi29 pol-C-terminus. Each gene was expressed in E. coli cells co-expressing biotin ligase in culture medium containing biotin. These conditions are known to effect the in-vivo biotinylation of biotinylation peptides. Proteins were purified using Ni-NTA columns and then mixed with a 2-fold molar excess of streptavidin under conditions known to effect binding of streptavidin to biotinylated fusion proteins.
The degree of biotinylation of each protein was assessed by HPLC. […] None of the biotinylation peptides affected the polymerase activity when tested in a branching fraction assay performed, for example, as described in U.S. patent application No. 2010/0112645.

No end group written: not given here.

Sequence of streptavidin (P22629 25-183, species assumed): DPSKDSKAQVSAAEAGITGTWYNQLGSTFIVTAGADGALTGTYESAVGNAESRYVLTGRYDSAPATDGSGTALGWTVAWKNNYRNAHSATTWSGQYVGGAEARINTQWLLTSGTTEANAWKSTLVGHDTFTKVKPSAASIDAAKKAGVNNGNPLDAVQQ

B1: Leu Asn Asp Leu Phe His Ala Gln Lys Ile Glu Trp His (protein)
chain: LNDLFHAQKIEWHHHHHHHHHHHMKHMPRKMYSCDFETTTKVEDCRVWAYGYMNIEDHSEYKIGNSLDEFMAWVLKVQADLYFHNLKFDGAFIINWLERNGFKWSADGLPNTYNTIISRMGQWYMIDICLGYKGKRKIHTVIYDSLKKLPFPVKKIAKDFKLTVLKGDIDYHKERPVGYKITPEEYAYIKNDIQIIAEALLIQFKQGLDRMTAGSDSLKGFKDIITTKKFKKVFPTLSLGLDKEVRYAYRGGFTWLNDRFKEKEIGEGMVFDVNSLYPAQMYSRLLPYGEPIVFEGKYVWDEDYPLHIQHIRCEFELKEGYIPTIQIKRSRFYKGNEYLKSSGGEIADLWLSNVDLELMKEHYDLYNVEYISGLKFKATTGLFKDFIDKWTYIKTTSEGAIKQLAKLMLNSLYGKFASNPDVTGKVPYLKENGALGFRLGEEETKDPVYTPMGVFITAWARYTTITAAQACYDRIIYCDTDSIHLTGTEIPDVIKDIVDPKKLGYWAHESTFKRAKYLRQKTYIQDIYMKEVDGKLVEGSPDDYTDIKFSVKCAGMTDKIKKEVTFENFKVGFSRKMKPKPVQVPGGVVLVDDTFTIK
notes: biotinylation peptide tested as N-terminal fusion: biotinylation peptide-His(10)-phi29 pol
Consider B1, for which the “degree of biotinylation: bound to streptavidin” value was “approximately 50%”.

B2: Leu Asn Asp Ile Val Glu Ala Gln Lys Ile Glu Trp His (protein)
chain: LNDIVEAQKIEWHHHHHHHHHHHMKHMPRKMYSCDFETTTKVEDCRVWAYGYMNIEDHSEYKIGNSLDEFMAWVLKVQADLYFHNLKFDGAFIINWLERNGFKWSADGLPNTYNTIISRMGQWYMIDICLGYKGKRKIHTVIYDSLKKLPFPVKKIAKDFKLTVLKGDIDYHKERPVGYKITPEEYAYIKNDIQIIAEALLIQFKQGLDRMTAGSDSLKGFKDIITTKKFKKVFPTLSLGLDKEVRYAYRGGFTWLNDRFKEKEIGEGMVFDVNSLYPAQMYSRLLPYGEPIVFEGKYVWDEDYPLHIQHIRCEFELKEGYIPTIQIKRSRFYKGNEYLKSSGGEIADLWLSNVDLELMKEHYDLYNVEYISGLKFKATTGLFKDFIDKWTYIKTTSEGAIKQLAKLMLNSLYGKFASNPDVTGKVPYLKENGALGFRLGEEETKDPVYTPMGVFITAWARYTTITAAQACYDRIIYCDTDSIHLTGTEIPDVIKDIVDPKKLGYWAHESTFKRAKYLRQKTYIQDIYMKEVDGKLVEGSPDDYTDIKFSVKCAGMTDKIKKEVTFENFKVGFSRKMKPKPVQVPGGVVLVDDTFTIK
notes: as for B1
For the molecule B2, the “degree of biotinylation: bound to streptavidin” value is reported as “approximately 50%”.

The values above are taken from patent US8389676B2, “Biotinylation tag peptides” (Pacific Biosciences of California, Inc., priority 2010, dated 2013).
